The target of series [1] is T1, BSA (bovine serum albumin) (UniProt P02769 P02769:25-607). Put plainly: 6 uM BSA, no color change of array. The conditions noted are these: label: Alexa Fluor 488. On the procedure: (§1) Desired amount of detection targets were added into 10 μl multiplexed detection solution. Unless elsewhere mentioned, final concentration of detection targets was 0.5 μM for DNA targets, 6 μM for thrombin and 3 mM for ATP. The mixture was thoroughly mixed by vortexing and then incubated at room temperature for 30 min before imaging.
T1 sequence (P02769 25-607, one chain of several): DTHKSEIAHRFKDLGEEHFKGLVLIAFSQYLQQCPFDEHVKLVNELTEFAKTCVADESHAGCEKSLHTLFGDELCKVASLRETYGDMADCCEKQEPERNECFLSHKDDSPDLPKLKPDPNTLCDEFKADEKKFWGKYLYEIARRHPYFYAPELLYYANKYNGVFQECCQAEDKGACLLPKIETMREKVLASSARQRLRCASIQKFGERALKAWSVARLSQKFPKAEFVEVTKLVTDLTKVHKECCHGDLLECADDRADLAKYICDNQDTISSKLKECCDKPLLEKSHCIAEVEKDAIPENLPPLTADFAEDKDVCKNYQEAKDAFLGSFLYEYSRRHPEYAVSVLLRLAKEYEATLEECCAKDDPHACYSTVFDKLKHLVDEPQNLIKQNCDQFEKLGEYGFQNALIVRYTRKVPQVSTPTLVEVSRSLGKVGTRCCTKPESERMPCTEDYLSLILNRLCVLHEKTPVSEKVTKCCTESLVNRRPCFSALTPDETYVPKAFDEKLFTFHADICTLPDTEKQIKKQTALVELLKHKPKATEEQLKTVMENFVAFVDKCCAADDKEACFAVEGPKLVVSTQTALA
(§2) Two different aptamer binding targets were used: human α-thrombin and ATP (See Table 1). The DNA sequences of probe 3 and 4 are, in fact, the aptamer sequences for these two targets.

The target in series [2] is T2, alpha-thrombin (Homo sapiens, UniProt P00734;P00734 P00734:328-363,P00734:364-622). Put plainly: no color change of array; 6 uM thrombin, 1xTAE-Mg, RT. The conditions noted are these: label: Alexa Fluor 488; partially hybridised to anchor strand on DNA B tile. As for the experimental part:
as §1, §2

The target in series [3] is alpha-thrombin (Homo sapiens, UniProt P00734;P00734 P00734:328-363,P00734:364-622). Put plainly: possibly CITED (ref 13); apparent Kd for strand-displacement probe; Table 1 labels of probes 3 and 4 appear swapped, Table 2 and sequence assign probe 3 to thro.
Series [4] deals with T1, BSA (bovine serum albumin). Put plainly: no significant 3MI fluorescence change on array. Conditions: label: 3MI at position 7.
The target in series [5] is T2, alpha-thrombin.
Where [6] appears, read: partially hybridised to anchor strand on DNA B tile.

Read-outs that look alike come from different tables or passages of the source.

Binding result and Kd data for five molecules are collected here from US20100009868, “Self-Assembled Combinatorial Encoding Nanoarrays for Multiplexed Biosensing” (The Arizona Board of Regents a body corporate acti ng for …, published 2010).

With TTTAACAGCAGTTGAGTTGATACTACTGGCCTAATTCCA (ssDNA) [Probe 2 (HIV probe)], the binding result in series [1] (setting [6]) and in series [2] was “no binding” in each case. On to CACTGACCTGGGGGAGTATTGCGGAGGAAGGT (ssDNA) [Probe 4 (ATP aptamer containing)], for which the binding result in series [1] (setting [6]) is given as “no binding”.

For the molecule CACTGTGGTTGGTGTGGTTGG (ssDNA) [Probe 3 (thrombin aptamer containing)], the binding result in series [1] (partially hybridised to anchor strand on DNA B tile (8-12 bp)) was “no binding”. The Kd in series [3] is around 400 nM.

With GGTTGGTGTGGTTGG (structured_DNA, dT7 replaced by 3-methylisoxanthopterin (3MI)) [3MI-TBA signaling aptamer on DNA tile array], in series [4], the binding result was “no binding”. As to CGTCTCTACCTGATTACTATTGCATCT (ssDNA) [Probe 1 (SARS probe)], the binding result in series [1] (setting [6]) and in series [5] was “no binding” in each case.
